The target of series [1] is T1, Plasmodium falciparum lactate dehydrogenase (PfLDH) (Plasmodium falciparum, UniProt Q76NM3 1-316). Kind of series: SPR.
Series [2] has as its target T1, Plasmodium falciparum lactate …. As to the kind of experiment: SPR. The source holds these as a separate data set.

B1: nanotrain without L2 on SPR chip (NT0; 5'-biotin-D + C + B + A.1) (mixed)
DNA 1: CGGCAAAGATCTAAAGGCGACAAGGAAAATCCTTCAACGAAGTGGGTCGCCCTAACTCTCTATCCG
DNA 2: TTGAGCTGGTTGTATGGCGACAAGGAAAATCCTTCAACGAAGTGGGTCGCCGGATAGAGAGTTAGG
DNA 3: ATACAACCAGCTCAAGGCGACAAGGAAAATCCTTCAACGAAGTGGGTCGCCATTCATAAACATAAC
DNA 4: GGCGACAAGGAAAATCCTTCAACGAAGTGGGTCGCCGTTATGTTTATGAAT
modifications: 5' biotin on D
For the molecule B1, the binding result in series [1] was “no binding”. In series [2], TTTAGATCTTTGCCGCTGGGCGGTAGAACCATAGTGACCCAGCCGTCTAC (structured_DNA, biotin (position not given)) [biotinylated L2] had a Kd of 66 ± 7 nM.

These data come from PMC9969250.
